Data set [1] concerns the molecule itself. Put plainly: cryo-EM structure; purified PIN1 and sybody-21 mixed at a molar ratio of ~1:3, gel filtration in 25 mM HEPES pH 7.4, 150 mM NaCl, 0.02% GDN; apo, IAA-bound (10 mM IAA) and NPA-bound (100 uM NPA) samples. (In general: SEC sorts molecules by how far they enter the pores of the column.)
For data set [2], the target named is T1, Arabidopsis thaliana PIN1 (PIN-FORMED 1 auxin transporter), full length, N-terminal Flag tag (A. thaliana, UniProt Q9C6B8).
T1 construct: PIN1, Arabidopsis thaliana, UniProt Q9C6B8, full length; most of the hydrophilic loop is not visible in the cryo-EM map; Forms a homodimer in the cryo-EM structures; A monomeric class was also seen in the apo sample; also called AtPIN1; WT PIN1
The description is as above. The settings on record: both partners purified.

B1: Arabidopsis thaliana PIN1 (PIN-FORMED 1 auxin transporter), full length, N-terminal Flag tag (natural protein, A. thaliana, UniProt Q9C6B8 1-622, looked up)
chain: MITAADFYHVMTAMVPLYVAMILAYGSVKWWKIFTPDQCSGINRFVALFAVPLLSFHFIAANNPYAMNLRFLAADSLQKVIVLSLLFLWCKLSRNGSLDWTITLFSLSTLPNTLVMGIPLLKGMYGNFSGDLMVQIVVLQCIIWYTLMLFLFEYRGAKLLISEQFPDTAGSIVSIHVDSDIMSLDGRQPLETEAEIKEDGKLHVTVRRSNASRSDIYSRRSQGLSATPRPSNLTNAEIYSLQSSRNPTPRGSSFNHTDFYSMMASGGGRNSNFGPGEAVFGSKGPTPRPSNYEEDGGPAKPTAAGTAAGAGRFHYQSGGSGGGGGAHYPAPNPGMFSPNTGGGGGTAAKGNAPVVGGKRQDGNGRDLHMFVWSSSASPVSDVFGGGGGNHHADYSTATNDHQKDVKISVPQGNSNDNQYVEREEFSFGNKDDDSKVLATDGGNNISNKTTQAKVMPPTSVMTRLILIMVWRKLIRNPNSYSSLFGITWSLISFKWNIEMPALIAKSISILSDAGLGMAMFSLGLFMALNPRIIACGNRRAAFAAAMRFVVGPAVMLVASYAVGLRGVLLHVAIIQAALPQGIVPFVFAKEYNVHPDILSTAVIFGMLIALPITLLYYILLGL
notes: PIN1, Arabidopsis thaliana, UniProt Q9C6B8, full length; most of the hydrophilic loop is not visible in the cryo-EM map; Forms a homodimer in the cryo-EM structures; A monomeric class was also seen in the apo sample; also called AtPIN1; WT PIN1
What is called stoichiometry N is a count of units in the complex or per binding partner. On to B1, for which the “stoichiometry N” value in data set [1] is 2.

B2: Sybody-21 (synthetic nanobody selected against PIN1) (VHH)
VHH: QVQLVESGGGLVQAGGSLRLSCAASGFPVNISWMEWYRQVPGKEREWVAAIQSTGSYTWYADSVKGRFTISRDNAKNTVYLQMNSLKPEDTAVYYCRVKVGAYYRGQGTQVTVSA
notes: Selected by ribosome display and phage display from the Concave, Loop or Convex sybody libraries; The BLI methods speak of a His-tagged sybody; How the purified Sybody-21 was made is not described; also called the sybody
B2: in data set [2], the binding result is listed as “binds”.

Values taken from publication PMC9477737, “Structural insights into auxin recognition and efflux by Arabidopsis PIN1” (Nature, 2022).
